Reference: patent US20140286975A1

What was measured:
CD40L = CD40L (UniProt P29965); test: cell-based or functional assay
CD40 = CD40 (UniProt P25942); test: cell-based or functional assay
UniProt P25942, sequence (P25942 21-277 limits assumed): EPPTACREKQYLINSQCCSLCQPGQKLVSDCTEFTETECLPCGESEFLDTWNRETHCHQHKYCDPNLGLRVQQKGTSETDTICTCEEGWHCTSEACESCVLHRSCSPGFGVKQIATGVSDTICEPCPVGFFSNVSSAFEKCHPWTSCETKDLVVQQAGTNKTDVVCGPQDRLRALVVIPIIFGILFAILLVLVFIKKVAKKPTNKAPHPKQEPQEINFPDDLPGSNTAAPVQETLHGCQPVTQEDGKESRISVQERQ

UniProt P29965, sequence (P29965 whole entry): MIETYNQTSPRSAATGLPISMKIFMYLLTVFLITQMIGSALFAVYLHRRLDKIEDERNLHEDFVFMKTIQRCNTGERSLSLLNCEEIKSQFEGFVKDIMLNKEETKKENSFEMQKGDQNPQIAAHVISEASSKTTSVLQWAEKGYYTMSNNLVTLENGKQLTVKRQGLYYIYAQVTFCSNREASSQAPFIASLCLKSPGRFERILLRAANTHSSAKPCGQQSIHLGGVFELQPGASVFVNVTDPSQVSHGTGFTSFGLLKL

| IFN-γ ELISpots upon recall, T-lymphocytes primed and restimulated by doubly-loaded dendritic cells (CD40L) | IFN-γ ELISpots upon restimulation of T-cells primed by doubly-loaded DCs (CD40) | IFN-γ ELISpots upon restimulation of T-cells primed by lysate-loaded DCs (CD40) | IFN-γ ELISpots upon restimulation of T-cells primed by mRNA-loaded DCs (CD40) | IFN-γ ELISpots upon restimulation, self-antigen controls (fold increase) (CD40) | Substance |
| --- | --- | --- | --- | --- | --- |
| 68 % decrease | – | – | – | – | anti-CD40L clone 40804 (R&D Systems) (antibody) |
| – | 8 % increase | 51 % increase | 86 % increase | 6 | antiCD40 clone 82111 (R&D Systems) (antibody) |
